In US20030060599A1, “Tripeptide amides that block viral infectivity and methods of use thereof” (published 2003):
Ends that are not written are not given here.

The binders below were run against major capsid protein (p24) of HIV-1 (HIV-1 (SF-2), UniProt P03349) (assay: cell-based or functional assay).

| Binder | antiviral inhibitory activity as determined by p24 production and RT activity in the culture supernatants (H9 cells, HIV-1 SF-2, 100 µM peptide) [%] |
| --- | --- |
| Arg-Val-Leu-NH2 [Arg-Val-Leu-NH2] | > 80 |
| Pro-Lys-Glu-NH2 [Pro-Lys-Glu-NH2] | > 80 |
| Glu-Pro-Phe-NH2 [Glu-Pro-Phe-NH2] | > 80 |
| Thr-Leu-Glu-NH2 [Thr-Leu-Glu-NH2] | > 80 |
